Assay results: the RNAGym collection of RNA variant scans (doi:10.1021/acssynbio.7b00057)

B1: Pistol ribozyme (parent)
chain: GGGUCGUUGUUCCAUAAUCGCGUGGAUAUGGCACGCAAGUUUCUACCGGGCACCGUAAAUGUCCGACUGGAGCCGUUCGGGCGGCUAUAAACAGACCUCAGGCCCGAAGCGUGGCGGCACCUGCCGCCGGUGGUAAAAAAGAUCGGAAGAGCACACGUCU

Variants of: B1
Assay: aptazyme ON/OFF ratio, guanine; higher = stronger switching; co-transcriptional cleavage with and without guanine

| Variant | aptazyme ON/OFF ratio |
| --- | --- |
| U7C U8A G9A U11G C12U C13G | 1.14 |
| U7C U8A G9A U11G C12U C13U | 1.18 |
| U7C U8A G9A U11G C12U C13A | 1.16 |
| U7C U8A G9A U10C U11C C12U C13U | 1.04 |
| U7C U8A G9A U10C U11C C12U C13A | 1.03 |
| U7C U8A G9A U10C U11C C12U C13G | 1.04 |
| U7C U8A G9C C12G C13G | 1.14 |
| U7C U8A G9C C12G C13A | 1.14 |
| U7C U8A G9C C12G C13U | 1.09 |
| U7C U8A G9A U11G C12G | 1.12 |
| U7C U8A G9A U11G C12U | 1.37 |
| U7C U8A G9A U11G C12A | 1.07 |
| U7C U8A G9A U10A U11A C13A | 1.16 |
| U7C U8A G9A U10A U11A C13U | 1.1 |
| U7C U8A G9A U10A U11A C13G | 1.12 |
| U7C U8A G9A U10C U11C C13A | 1.03 |
| U7C U8A G9A U10C U11C C13U | 0.994 |
| U7C U8A G9A U10C U11C C13G | 1.05 |
| U7C U8A G9A U10A U11C C12A C13G | 1.12 |
| U7C U8A G9A U10A U11C C12A C13A | 1.17 |
| U7C U8A G9A U10A U11C C12A C13U | 1.16 |
| U7C U8A G9A C12A C13U | 1.15 |
| U7C U8A G9A C12A C13A | 1.21 |
| U7C U8A G9A C12A C13G | 1.2 |

| Variant | aptazyme ON/OFF ratio |
| --- | --- |
| U7C G9U U11G C13A | 1.21 |
| U7C G9U U11G C13G | 1.03 |
| U7C G9U U11G C13U | 1.15 |
| U7C U8A G9A C12G | 1.26 |
| U7C U8A G9A C12A | 1.32 |
| U7C U8A G9A C12U | 1.3 |
| U7C U8A G9A U10G C12G C13A | 1.1 |
| U7C U8A G9A U10G C12G C13U | 1.27 |
| U7C U8A G9A U10G C12G C13G | 1.04 |
| U7C U8A G9A U10G C12U C13U | 0.977 |
| U7C U8A G9A U10G C12U C13G | 1.14 |
| U7C U8A G9A U10G C12U C13A | 1.26 |
| U7C U8A G9C U10A U11A C13G | 1.15 |
| U7C U8A G9C U10A U11A C13U | 1.19 |
| U7C U8A G9C U10A U11A C13A | 1.2 |
| U7C U8A G9A U10C U11C C12A C13A | 1.03 |
| U7C U8A G9A U10C U11C C12A C13G | 1.05 |
| U7C U8A G9A U10C U11C C12A C13U | 1.09 |
| U7C U8A G9A C13G | 1.06 |
| U7C U8A G9A C13A | 1.15 |
| U7C U8A G9A C13U | 1.18 |
| U7C U8A C12U C13G | 1.28 |
| U7C U8A C12U C13A | 1.17 |
| U7C U8A C12U C13U | 1.32 |

| Variant | aptazyme ON/OFF ratio |
| --- | --- |
| U7C U8A G9A U10A C12A C13U | 1.26 |
| U7C U8A G9A U10A C12A C13G | 1.18 |
| U7C U8A G9A U10A C12A C13A | 1.19 |
| U7C U8A G9A U10G U11A C12A C13U | 1.17 |
| U7C U8A G9A U10G U11A C12A C13G | 1.17 |
| U7C U8A G9A U10G U11A C12A C13A | 1.18 |
| U7C U8A G9A U11G C12G C13U | 1.13 |
| U7C U8A G9A U11G C12G C13A | 1.12 |
| U7C U8A G9A U11G C12G C13G | 1.12 |
| U7C U8A G9A U10C | 3.41 |
| U7C U8A G9A U10G | 1.38 |
| U7C U8A G9A U10A | 1.69 |
| U7C U8A G9A U10G U11G C12A | 1.11 |
| U7C U8A G9A U10G U11G C12G | 1.29 |
| U7C U8A G9A U10G U11G C12U | 1.39 |
| U7C U8A G9C C13U | 1.05 |
| U7C U8A G9C C13G | 1.04 |
| U7C U8A G9C C13A | 1.02 |
| U7C U8A G9A U10G U11G C12U C13G | 1.14 |
| U7C U8A G9A U10G U11G C12U C13U | 1.2 |
| U7C U8A G9A U10G U11G C12U C13A | 1.11 |
| U7C U8A G9A U10G C12A | 1.15 |
| U7C U8A G9A U10G C12G | 1.25 |
| U7C U8A G9A U10G C12U | 1.29 |

| Variant | aptazyme ON/OFF ratio |
| --- | --- |
| U7C U8A G9A U11G C12A C13A | 1.19 |
| U7C U8A G9A U11G C12A C13U | 1.09 |
| U7C U8A G9A U11G C12A C13G | 1.21 |
| U7C U8A G9C C12U C13A | 1.12 |
| U7C U8A G9C C12U C13U | 1.19 |
| U7C U8A G9C C12U C13G | 1.07 |
| U7C U8A G9A U10A U11G C12U C13G | 1.17 |
| U7C U8A G9A U10A U11G C12U C13A | 1.21 |
| U7C U8A G9A U10A U11G C12U C13U | 1.22 |
| U7C U8A G9A U10C U11C C12G C13U | 1.07 |
| U7C U8A G9A U10C U11C C12G C13A | 1.13 |
| U7C U8A G9A U10C U11C C12G C13G | 1.17 |
| U7C U8A G9A U10A U11C C13U | 1.05 |
| U7C U8A G9A U10A U11C C13A | 1.03 |
| U7C U8A G9A U10A U11C C13G | 1.03 |
| U7C U8A C13A | 1.31 |
| U7C U8A C13G | 1.11 |
| U7C U8A C13U | 1.71 |
| U7C U8A G9A U10A U11G C12A C13A | 1.11 |
| U7C U8A G9A U10A U11G C12A C13U | 1.18 |
| U7C U8A G9A U10A U11G C12A C13G | 1.09 |
| U7C U8A G9A U11G | 1.09 |
| U7C U8A G9A U11A | 1.17 |
| U7C U8A G9A U11C | 1.06 |

| Variant | aptazyme ON/OFF ratio |
| --- | --- |
| U7C U8A G9C U10A U11A C12G | 1.18 |
| U7C U8A G9C U10A U11A C12U | 1.2 |
| U7C U8A G9C U10A U11A C12A | 1.16 |
| U7C U8A G9A U10C C13U | 1.51 |
| U7C U8A G9A U10C C13A | 1.03 |
| U7C U8A G9A U10C C13G | 1.05 |
| U7C U8A G9A U11A C12A C13U | 1.08 |
| U7C U8A G9A U11A C12A C13G | 1.22 |
| U7C U8A G9A U11A C12A C13A | 1.17 |
| U7C U8A G9A U10A U11A C12U C13A | 1.2 |
| U7C U8A G9A U10A U11A C12U C13G | 1.17 |
| U7C U8A G9A U10A U11A C12U C13U | 1.13 |
| U7C U8A G9A U10C U11A C12A C13G | 1.1 |
| U7C U8A G9A U10C U11A C12A C13A | 1.13 |
| U7C U8A G9A U10C U11A C12A C13U | 1.15 |
| U7C U8A G9A U10G U11C C12A C13A | 1.15 |
| U7C U8A G9A U10G U11C C12A C13G | 1.1 |
| U7C U8A G9A U10G U11C C12A C13U | 1.18 |
| U7C U8A C12A C13U | 1.39 |
| U7C U8A C12A C13A | 1.34 |
| U7C U8A C12A C13G | 1.09 |
| U7C U8A G9A U10G U11A C12U C13A | 1.11 |
| U7C U8A G9A U10G U11A C12U C13U | 1.06 |
| U7C U8A G9A U10G U11A C12U C13G | 1.12 |

| Variant | aptazyme ON/OFF ratio |
| --- | --- |
| U7C U8A G9A U10C U11A C12G C13U | 1.18 |
| U7C U8A G9A U10C U11A C12G C13A | 1.12 |
| U7C U8A G9A U10C U11A C12G C13G | 1.17 |
| U7C U8A C12G C13A | 1.14 |
| U7C U8A C12G C13G | 1.23 |
| U7C U8A C12G C13U | 1.3 |
| U7C U8A G9A U11A C12G C13U | 1.19 |
| U7C U8A G9A U11A C12G C13G | 1.19 |
| U7C U8A G9A U11A C12G C13A | 1.15 |
| U7C U8A G9A U11C C12G | 1.16 |
| U7C U8A G9A U11C C12U | 1.13 |
| U7C U8A G9A U11C C12A | 1.23 |
| U7C U8A G9A U10G U11C C12U C13G | 1.14 |
| U7C U8A G9A U10G U11C C12U C13U | 1.17 |
| U7C U8A G9A U10G U11C C12U C13A | 1.15 |
| U7C U8A G9A U10C U11G C12G C13A | 1.24 |
| U7C U8A G9A U10C U11G C12G C13G | 1.12 |
| U7C U8A G9A U10C U11G C12G C13U | 1.11 |
| U7C U8A G9A U11A C12U C13A | 1.32 |
| U7C U8A G9A U11A C12U C13U | 1.27 |
| U7C U8A G9A U11A C12U C13G | 1.18 |
| U7C U8A G9A U11A C12A | 1.2 |
| U7C U8A G9A U11A C12G | 1.2 |
| U7C U8A G9A U11A C12U | 1.25 |

| Variant | aptazyme ON/OFF ratio |
| --- | --- |
| U7C U8A G9A U10G U11G C13A | 1.11 |
| U7C U8A G9A U10G U11G C13G | 1.05 |
| U7C U8A G9A U10G U11G C13U | 1.04 |
| U7C U8A G9C U10A U11A C12A C13U | 1.2 |
| U7C U8A G9C U10A U11A C12A C13G | 1.12 |
| U7C U8A G9C U10A U11A C12A C13A | 1.19 |
| U7C U8A G9A U10A C12U C13A | 1.15 |
| U7C U8A G9A U10A C12U C13U | 1.28 |
| U7C U8A G9A U10A C12U C13G | 1.14 |
| U7C U8A G9A U10A U11A C12U | 1.19 |
| U7C U8A G9A U10A U11A C12G | 1.23 |
| U7C U8A G9A U10A U11A C12A | 1.2 |
| U7C U8A G9C U10A C12A C13U | 1.21 |
| U7C U8A G9C U10A C12A C13A | 1.26 |
| U7C U8A G9C U10A C12A C13G | 1.14 |
| U7C U8A G9A U10G U11C C12G | 1.21 |
| U7C U8A G9A U10G U11C C12A | 1.2 |
| U7C U8A G9A U10G U11C C12U | 1.07 |
| U7C U8A G9A U10C U11G C12U C13A | 1.17 |
| U7C U8A G9A U10C U11G C12U C13U | 1.26 |
| U7C U8A G9A U10C U11G C12U C13G | 1.27 |
| U7C U8A G9C U10A U11A C12U C13U | 1.11 |
| U7C U8A G9C U10A U11A C12U C13A | 1.05 |
